In article PMC6508626:

Assays:
Assay in all cases: co-IP
[1] = target: HA-tagged NS1 S252A (Dengue virus 2 (strain 16681))
[2] = target: HA-tagged NS1 P319A (Dengue virus 2 (strain 16681))
[3] = target: HA-tagged NS1 E334A (Dengue virus 2 (strain 16681))
[4] = target: HA-tagged NS1 W150A (Dengue virus 2 (strain 16681))
[5] = target: HA-tagged NS1 D197A (Dengue virus 2 (strain 16681))
[6] = target: HA-tagged NS1 R62A (Dengue virus 2 (strain 16681))
[7] = target: HA-tagged NS1 G161A (Dengue virus 2 (strain 16681))
[8] = target: HA-tagged NS1 Y158A (Dengue virus 2 (strain 16681))
[9] = target: Carboxy-terminally HA-tagged wildtype NS1 from pTM_NS1_HA (Dengue virus 2 (strain 16681)) (UniProt P29990)
[10] = target: HA-tagged NS1 W8A (Dengue virus 2 (strain 16681))
[11] = target: HA-tagged NS1 K189A (Dengue virus 2 (strain 16681))
[12] = target: HA-tagged NS1 T317A (Dengue virus 2 (strain 16681))
[13] = target: HA-tagged NS1 P320A (Dengue virus 2 (strain 16681))
[14] = target: HA-tagged NS1 W311A (Dengue virus 2 (strain 16681))
[15] = target: HA-tagged NS1 Y32A (Dengue virus 2 (strain 16681))
[16] = target: HA-tagged NS1 R336A (Dengue virus 2 (strain 16681))
[17] = target: HA-tagged NS1 L153A (Dengue virus 2 (strain 16681))
[18] = target: HA-tagged NS1 W168A (Dengue virus 2 (strain 16681))
[19] = target: HA-tagged NS1 D136A (Dengue virus 2 (strain 16681))

## NS4A-2K-4B polyprotein from pTM_NS4A-2K-4B (natural protein)
[1]
  NS1—NS4A-2K-4B interaction (fold of WT): 3.18 fold of WT
[2]
  NS1—NS4A-2K-4B interaction (fold of WT): 0.37 fold of WT
[3]
  NS1—NS4A-2K-4B interaction (fold of WT): 0.18 fold of WT
[4]
  NS1—NS4A-2K-4B interaction (fold of WT): 0.38 fold of WT
[5]
  NS1—NS4A-2K-4B interaction (fold of WT): 4.09 fold of WT
[6]
  NS1—NS4A-2K-4B interaction (fold of WT): 3.97 fold of WT
[7]
  NS1—NS4A-2K-4B interaction (fold of WT): 0.07 fold of WT
[8]
  NS1—NS4A-2K-4B interaction (fold of WT): 3.01 fold of WT
[9]
  NS1—NS4A-2K-4B interaction (fold of WT): 1 fold of WT
[10]
  NS1—NS4A-2K-4B interaction (fold of WT): 0.99 fold of WT
[11]
  NS1—NS4A-2K-4B interaction (fold of WT): 1.33 fold of WT
[12]
  NS1—NS4A-2K-4B interaction (fold of WT): 2.08 fold of WT
[13]
  NS1—NS4A-2K-4B interaction (fold of WT): 0.86 fold of WT
[14]
  NS1—NS4A-2K-4B interaction (fold of WT): 0.31 fold of WT
[15]
  NS1—NS4A-2K-4B interaction (fold of WT): 0.31 fold of WT
[16]
  NS1—NS4A-2K-4B interaction (fold of WT): 0.26 fold of WT
[17]
  NS1—NS4A-2K-4B interaction (fold of WT): 1.67 fold of WT
[18]
  NS1—NS4A-2K-4B interaction (fold of WT): 0.02 fold of WT
[19]
  NS1—NS4A-2K-4B interaction (fold of WT): 0.21 fold of WT
